The DeepSol protein solubility set

Assay: soluble on expression in E. coli; label from the status in PepcDB or PDB records

Soluble on expression in E. coli, not soluble:
MGHHHHHHSHMTRVKLQDGVHIIKETKEEVTPEQLKLMRTQDVKYIEMKRVAEAKKIERLKSELHLLDFQGKQQNKHVFFFDTKKEVEQFDVATHLQTAPELVDRVFNRPRIETLQKEKVKGVTNQTGLKRIAKERQKQYNCLTQRIEREKKLFVIAQKIQTRKDLMDKTQKVKVKKETVNFPAIYKFQSRRKR
KTYGPLKNLPHLEKEQLSQSLWRIADELGPIFRFDFPGVSSVFVSGHNLVAEVCDEKRFDKNLGKGLQKVREFGGDGLFTSWTHEPNWQKAHRILLPSFSQKAMKGYHSMMLDIATQLIQKWSRLNPNEEIDVADDMTRLTLDTIGLCGFNYRFNSFYRDSQHPFITSMLRALKEAMNQSKRLGLQDKMMVKTKLQFQKDIEVMNSLVDRMIAERKANPDENIKDLLSLMLYAKDPVTGETLDDENIRYQIITFLIAGHETTSGLLSFAIYCLLTHPEKLKKAQEEADRVLTDDTPEYKQIQQLKYIRMVLNETLRLYPTAPAFSLYAKEDTVLGGEYPISKGQPVTVLIPKLHRDQNAWGPDAEDFRPERFEDPSSIPHHAYKPFGNGQRACIGMQFALQEATMVLGLVLKHFELINHTGYELKIKEALTIKPDDFKITVKPRKTAAINVQRKEQADIKAETKPKETKPKHGTPLLVLFGSNLGTAEGIAGELAAQGRQMGFTAETAPLDDYIGKLPEEGAVVIVTASYNGAPPDNAAGFVEWLKELEEGQLKGVSYAVFGCGNRSWASTYQRIPRLIDDMMKAKGASRLTAIGEGDAADDFESHRESWENRFWKETMDAFDINEIAQKEDRPSLSITFLSEATETPVAKAYGAFEGIVLENRELQTAASTRSTRHIELEIPAGKTYKEGDHIGILPKNSRELVQRVLSRFGLQSNHVIKVSGSAHMAHLPMDRPIKVVDLLSSYVELQEPASRLQLRELASYTVCPPHQKELEQLVSDDGIYKEQVLAKRLTMLDFLEDYPACEMPFERFLALLPSLKPRYYSISSSPKVHANIVSMTVGVVKASAWSGRGEYRGVASNYLAELNTGDAAACFIRTPQSGFQMPNDPETPMIMVGPGTGIAPFRGFIQARSVLKKEGSTLGEALLYFGCRRPDHDDLYREELDQAEQDGLVTIRRCYSRVENEPKGYVQHLLKQDTQKLMTLIEKGAHIYVCGDGSQMAPDVERTLRLAYEAEKAASQEESAVWLQKLQDQRRYVKDVW
MPLTSVTPLCITWNGEKLVAAGYDSTILTAVPKDIVKVKVNDRPIVFDVAPIIGEGRTLVPLRHIFEALGAEVKWDASTRTVTGIKGSDKIILKIDSKEALVNGETKELDVPATIVNGRTLVPVRSISESLGAEVSWDDNSKTVIIKTNF
MMLSNFKRNKYQQHLAQLPRISQNADDVQTLHSPELFRTTLTNAILRAKKRVYIVALYLERDDGGIGILSAIYEAKRQCPELDVRVLVDWHRAQRGRIGTAAENTNADWYCDMAKKHPDTHFPIYGIPVNTREALGVLHLKGFIVDDTVIYSGASLNDVYLHQHQKYRYDRYQLIHNPVLADTMVQYIQTMLSAPAVQRLDHTDRPKSLEIKNDIKQFRQTLRTASYQAPECSANANELTVTPLVGLGKQSPLNKTIHHLMYCADEHLVICTPYFNMPALLVRNIIRLLRDGKKVEIIIGDKTANDFYIPEDQPFKIIGALPYLYEINLRRFLSRLERYIENQQLVVRLWKDGDNSFHLKGMWVDGKWQLLTGNNLNPRAWRLDLENAILIHDPQQVLLQQRLDELDTIRTHTHVVKSYTELESIAQYPVKVRKLIRRLRRIRIDRLISRILLEHHHHHH
MGSDKIHHHHHHMPRHDDPRYFPISPLLIVPQALGSFSVFIRKDERLILYAKAGETFTERHSRRLHENGTSEVYVRVDQRQNFGLYLERHLAHILEDDRLPVEHRASAFHCATTELLRDTFGTRLPAPVDGILFERLQSLVTMSLRFLCEQGTLKALGQLLDCDFSAYSHSVNVYALTVPLLARLGYAQTDLVRTGLGVLLHDIGLARLPRAITRHRHSLTKHEEHIYRTHPTLGVGLVAQVPLSQEALHCIMLHHERLDGSGFPAGVKDENIPTAVRALAIADTYDLLTTAPGEARLTPFMALQLMRSEHHSTLDLYLLREFITMLSDAEMAGVWPDTLR
MTKVTHLPADDRSCGWYHLSPPRRPKPAHYGRSAARWVVVGAGFTGLAAARQLALHFPDEEIVLVEAQEVGFGTAGRNAGFAIDLPHDIGADDYIGDIATARIGLKLNLAGQSLLREQVQRHAIDCQMKACGKYQAAVEARGVAVLDAYRRGLDRLGQAYEVIEADDLPGNIGTAFYRKALFTPGTLLVQPSALVKGLADSLPGNVSLYEHTPITAVEYGDRTLLSHPHGSILADRLVLANNAFGMSFGFLQGRMLPIFTYASLTRPLDAEEQARLGGRPYWGLIPANPYGTTVRRTPDNRLLIRNSFSFNPDGRSAGKYLERFAVRHRASFRQRFPMLPEVGFDYTWGGSLALSRNHMGHFGELAPNVYGALCCNGLGVTRGTVTGKLLADWLAGERNELIDFLLRAPGPSGNPPEPLLSLGVNLNLRWGQYRAGRESLEHHHHHH
MRDSLNNGVSLQQAQETYFAKFNHYSYMAHFVAKILGQRPSHVLSGWGVSELIVAYGHYANEQSYQNFMDWKSSQENAPKPKQPQPFVVQFISQDELEEVE
MGSDKIHHHHHHMTARLESNAPVQYAFRLDDREVAVNPLIGRPLRLEYLGSIFCTHCGRKTKKSFSQGYCYPCFTRLAQCDSCIVSPEKCHYEQGTCREPEWGERFCMTDHVVYLANSSGVKVGITRASQIPTRWIDQGARQALPILRVATRQQSGLVEDLLRSQVADRTNWRAMLKGEAEPVDLAAVREQLFDQCADGLRELQQRFGLQAIQPVIDLDPLEIAYPVEAYPSKVASLDLEKTPIVEGTLRGIKGQYLILDTGVINIRKYTAYQIAVHH
MLKMSTRTEAMSDKQVRAQYTREFKLEAVRQVRAGQAIAGVAKVLGIPKASLGNGVRLAAKGALGGSGGSDKADRVSPEQMEIARLRAEVARLRMERDIAKKAAAYFAQDTLRGTPGLTQLEHHHHHH

Soluble on expression in E. coli, soluble:
MSLNYTTQMDAAKKGIITKEMQVVSEKEGINIETLMNLMAEGKIVIPANKNHKSISAEGVGQGLRTKINVNLGISKDCANIELELEKVKKAIDMNAESIMDLSNYGKTYDFRKRLVEVSTAMIGTVPMYDVVGFYDKELKDITVDEFFEVVEKHAKDGVDFVTIHAGLNRETIETFRRNKRLTNIVSRGGSLLFAWMELNNRENPFYEYFDRLLDICEKYDLTLSLGDACRPGSIADATDAVQIKELITLGELTKRAWERNVQVIIEGPGHMAMNEIEANVLLEKKLCHGAPFYVLGPIVTDIAPGYDHITSAIGGAMAASYGADFLCYVTPAEHLRLPNLEDVREGIVATKIAAHAADIAKGISGARDIDNKMSDARKRLDWDEMFSLAIDSEKAIRYRKESTPEHKDSCTMCGKMCSIRNMNKILEGKDINLLREGHHHHHH
MSLLKADGMAKKQTLLVGERLVWDKLTLLGFLEKNHIPQKLYYNLSSQDKELSAEIQSNVTYYTLRDANNTLIQALIPISQDLQIHIYKKGEDYFLDFIPIVFTRKERTLLLSLQTSPYQDIVKATNDPLLANQLMNAYKKSVPFKRLVKNDKIAIVYTRDYRVGQAFGQPTIKMAMVSSRLHQYYLFSHSNGRYYDSKAQEVAGFLLETPVKYTRISSPFSYGRFHPVLKVKRPHYGVDYAAKHGSLIHSASDGRVGFIGVKAGYGKVVEIHLNELRLVYAHMSAFANGLKKGSFVKKGQIIGRVGSTGLSTGPHLHFGVYKNSRPINPLGYIRTAKSKLHGKQREVFLEKAQYSKQKLEELFKTHSFEKNSFYLLEGFEGHHHHHH
GPGSMIHPMAVDRLLPSQEAAELIELTREIADKVLDPIVDRHEKDETYPEGVFEQLGAAGLLSLPQPEEWGGGGQPYEVYLQVLEEIAARWASVAVAVSVHSLSSHPLLVFGTEEQKKRWLPGMLSGEQIGAYSLSEPQAGSDAAALRCAATPTDGGYVINGSKSWITHGGKADFYTLFARTGEGSRGVSCFLVPADQPGLSFGKPEEKMGLHAVPTTSAFYDNARIDADRRIGEEGQGLQIAFSALDSGRLGIAAVATGLAQAALDEAVAYANERTAFGRKIIDHQGLGFLLADMAAAVATARATYLDAARRRDQGRPYSQQASIAKLTATDAAMKVTTDAVQVFGGVGYTRDYRVERYMREAKIMQIFEGTNQIQRLVIARGLTR
HMTPQDHEKAALIMQVLQLTADQIAMLPPEQRQSILILKEQIQKSTGAP
SMGLPPGWDEYKTHNGKTYYYNHNTKTSTWTDPRMSS
